This passage reports EC50 results from patent US20240368303A1 (ZHEJIANG SHIMAI PHARMACEUTICAL, published 2024).

The EC50 is the concentration at which the effect is half-maximal.

Assay [1] addresses T1, recombinant human GPC3 (full-length extracellular domain) (human, UniProt P51654 25-559).
T1 construct: extracellular domain; Bought protein coated on ELISA plates; also called human GPC3 protein
As to the kind of experiment: ELISA, GPC3 coated at 50 ng per well, anti-FLAG-HRP detection. On the procedure:
The hexahistidine-tagged 1A1 Fab and 6A4 Fab were expressed in E. coli strain HB2151 and purified from the soluble fraction of periplasm by using the Ni-NTA resin. Then ELISA was performed by using standard protocols to measure binding affinity to recombinant human GPC3 (full-length extracellular domain). Briefly, the recombinant human GPC3 (ACROBiosystems) was coated on Corning EIA/RIA high-binding 96-well plates (Corning Inc.) at 50 ng per well overnight at 4° C. and blocked with 3% nonfat milk in PBS (pH7.4). Fivefold serially diluted antibodies were added and incubated at room temperature for 2 h. The plates were washed with PBS containing 0.05% Tween 20. Bound antibodies were detected by HRP-conjugated anti-FLAG tag antibody (Sino Biological). The assay was developed at room temperature with TMB substrate (Solarbio) and OD value was measured at 450 nm with a microplate reader.
In general terms: An ELISA detects its analyte on a solid surface through an enzyme-linked reagent.

Assay [2] addresses T1, recombinant human GPC3 (full-length …). Nature of the assay: ELISA, GPC3 coated, biotinylated antibody, streptavidin-HRP detection. On the procedure:
(§1) ELISA was performed according to standard protocols, to determine binding affinity of anti-GPC3 1A1 mAb to recombinant GPC3 from human, cynomolgus, and mouse and anti-GPC3 6A4 mAb to recombinant human GPC3. Briefly, recombinant GPC3 (AcroBiosystems) was coated on Corning EIA/RIA high-binding 96-well plates (Corning Inc.) at 50 ng per well overnight at 4° C. and blocked with 3% nonfat milk in PBS (pH7.4). Fivefold serially diluted biotinylated antibodies were added and incubated at room temperature for 2 h. The plates were washed with PBS containing 0.05% Tween 20. Bound antibodies were detected by HRP-conjugated streptavidin (Sino Biological). The assay was developed at room temperature with TMB substrate (Solarbio) and monitored at 450 nm with a microplate reader. The half-maximal binding (EC₅₀) was calculated by fitting the data to the Langmuir adsorption isotherm.

Assay [3] has as its target T2, recombinant mouse GPC3 (mouse, UniProt Q8CFZ4 25-558, limits assumed).
T2 construct: Bought protein; also called mouse GPC3 protein
The assay is described as above. How it is done: as §1

Assay [4] addresses T3, recombinant cynomolgus GPC3 (cynomolgus, UniProt A0A2K5VK50 24-558).
T3 construct: Bought protein; also called cynomolgus GPC3 protein
The assay is described as above. How it is done:
as §1

T2 sequence (Q8CFZ4 25-558 limits assumed): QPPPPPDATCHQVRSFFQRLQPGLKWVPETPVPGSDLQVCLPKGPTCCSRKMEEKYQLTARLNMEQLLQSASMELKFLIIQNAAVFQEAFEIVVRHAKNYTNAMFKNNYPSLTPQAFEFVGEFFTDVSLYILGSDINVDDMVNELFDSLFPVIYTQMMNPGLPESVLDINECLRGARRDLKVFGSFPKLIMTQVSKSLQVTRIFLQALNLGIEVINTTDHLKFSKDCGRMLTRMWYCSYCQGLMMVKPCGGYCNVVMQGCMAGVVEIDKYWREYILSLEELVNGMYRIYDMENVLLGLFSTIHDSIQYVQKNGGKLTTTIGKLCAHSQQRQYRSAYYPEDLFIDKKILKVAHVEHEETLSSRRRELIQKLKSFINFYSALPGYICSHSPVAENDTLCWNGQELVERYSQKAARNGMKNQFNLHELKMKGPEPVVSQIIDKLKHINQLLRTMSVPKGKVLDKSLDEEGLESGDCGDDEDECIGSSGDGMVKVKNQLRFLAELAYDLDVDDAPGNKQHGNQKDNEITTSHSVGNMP

B1: 6A4 Fab (Fab, V domains shown)
VH: EVQLVQSGAEVKKPGASVKVSCKASGYTFTSYAMHWVRQAPGQRLEWMGWINAGNGNTKYSQKFQGRVTITRDTSTSTAYMELRSLRSDDTAVYYCARDPSHWGQGTLVTVSS
VL: not shown
notes: Human Fab from a phage library, kappa light chain, hexahistidine-tagged, made in E. coli HB2151, detected with anti-FLAG antibody; also called Fab clone 6A4
For B1, the 50% effective concentration (EC50) in assay [1] is around 234 nM.

B2: anti-GPC3 6A4 mAb (antibody, V domains shown)
VH: EVQLVQSGAEVKKPGASVKVSCKASGYTFTSYAMHWVRQAPGQRLEWMGWINAGNGNTKYSQKFQGRVTITRDTSTSTAYMELRSLRSDDTAVYYCARDPSHWGQGTLVTVSS
VL: not shown
notes: Intact human IgG1 kappa
Take B2: the EC50 in assay [2] came out at 4.5 nM.

B3: 1A1 Fab (Fab, V domains shown)
VH: EVQLVQSGAEVKKPGASVKVSCKASGYTFTSYGISWVRQAPGQGLEWMGWISAYNGNTNYAQKLQGRVTMTTDTSTSTAYMELRSLRSDDTAVYYCARAGTPTQILRYFDWLSQPFDYWGQGTLVTVSS
VL: EIVLTQSPLSLPVTLGQPASISCRSSQSLVYSDGNTYLNWFHQRPGQSPRRLIYKVSNRDSGVPERFSGSGSGTDFTLKISRVEAEDVGVYYCMQSTHWPLTFGGGTKVEIK
notes: Human Fab from a phage library, kappa light chain, hexahistidine-tagged, made in E. coli HB2151, detected with anti-FLAG antibody; also called Fab clone 1A1; anti-GPC3 1A1 Fab
Turning to B3, the half-maximal effective concentration (EC50) in assay [1] is around 190 nM.

B4: anti-GPC3 1A1 mAb (antibody, human IgG1, kappa, V domains shown)
VH: EVQLVQSGAEVKKPGASVKVSCKASGYTFTSYGISWVRQAPGQGLEWMGWISAYNGNTNYAQKLQGRVTMTTDTSTSTAYMELRSLRSDDTAVYYCARAGTPTQILRYFDWLSQPFDYWGQGTLVTVSS
VL: EIVLTQSPLSLPVTLGQPASISCRSSQSLVYSDGNTYLNWFHQRPGQSPRRLIYKVSNRDSGVPERFSGSGSGTDFTLKISRVEAEDVGVYYCMQSTHWPLTFGGGTKVEIKR
notes: Intact human IgG1 kappa, about 150 kDa on non-reducing SDS-PAGE
On to B4, for which the values for the EC50 in assay [2], in assay [3] and in assay [4] were 0.6 nM, 1.12 nM and 0.58 nM, respectively.
